Measured values from patent publication US20070298494A1 (KANSAS STATE UNIVERSITY RESEARCH FOUNDATION, published 2007).

B1: NK4A'Wa' (peptide)
peptide: KKKKAARVGLGITTVWVTTIGLGVRAA
notes: Synthetic peptide; tested for association with itself in solution by BS3 cross-linking and SDS-PAGE
B2: N-K4-M2GlyR (peptide)
peptide: KKKKPARVGLGITTVLTMTTQSSGSRA
notes: Synthetic peptide; tested for association with itself in solution by BS3 cross-linking and SDS-PAGE; also called NK4ALB
B3: C-K4-M2GlyR (peptide)
peptide: PARVGLGITTVLTMTTQSSGSRAKKKK
notes: Synthetic peptide; tested for association with itself in solution by BS3 cross-linking and SDS-PAGE; also called CK4ALB

Target: the molecule itself
Test: BS3 chemical cross-linking in solution, SDS-PAGE, silver stain; association of the peptide with itself
Protocol: In order to visualize the oligomeric state of the peptide in solution a chemical cross-linking protocol was developed. Calculated amounts of each peptide were weighted out and dissolved in 1 mL of distilled water to make 1 mM stock solutions. A 100 mM stock solution of the chemical crosslinking reagent Bis[Sulfosuccinimidyl]suberate, BS³, (Pierce Chemical Co., Rockford, Ill.) was prepared in dimethyl sulfoxide (DMSO). In typical reactions, 5-30 μL of 1.0 mM stock solution of peptide are added to 64-94 μL of 10 mM HEPES buffer, pH 8.1 to give a range of concentrations starting at 50 μM rising up to 300 μM. Sample were allowed to sit at room temperature for 15 minutes. 1-6 μL of 100 mM BS³ was then added to the previously prepared peptide such that the crosslinking reagent was present in 20-fold excess. The final volume for each reaction was 100 μL. After reacting for 30 minutes, the reaction was stopped with the addition of 10 μL 1.0 N HCl. Each sample was then vacuum dried. Later dry samples were re-dissolved in 60 μL of distilled water along with 60 μL of a 2×-tricine SDS sample buffer (Novex, San Diego). All samples were then boiled at 100° C. for 5 minutes. 5 μL aliquots of each SDS boiled sample was then loaded into separate lanes of pre-cast, 1.0 mm, 10 well, 10-20% tricine gels (Novex, San Diego). Pre-made Novex tricine-SDS buffer was used in the electrophoresis. The reference well contained 1 μL of MultiMark® multi-colored molecular weight standard (Novex, San Diego). The electrophoresis was carried out at a constant 110 Volts for 90 minutes. The gel was then fixed in 40% methanol in water and the cross-linked peptides visualized using silver staining (SilverXpress® silver staining kit, Invitrogen, Carlsbad, Calif.).
B1: no binding.
B2: binds.
B3: binds.
